Laboratory results taken from PMC2756588.

biological target: T1, Bzz1-1, P38822; assay: SPOT array; conditions: median of control spots 4446
T1 sequence (P38822 478-572, looked up): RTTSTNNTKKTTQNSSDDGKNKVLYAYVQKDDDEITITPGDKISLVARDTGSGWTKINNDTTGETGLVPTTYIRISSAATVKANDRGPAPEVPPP

NVLRKILEIPLHSFS and NMLSRPRLAKLPSIR are the same in SPOT intensity: 0 for the first, 0 for the second.

With ATNVPVAPPPPPASL the SPOT intensity was 1.

biological target: T2, Lsb4, P32793; assay: SPOT array; conditions: median of control spots 397
T2 sequence (P32793 402-468, looked up): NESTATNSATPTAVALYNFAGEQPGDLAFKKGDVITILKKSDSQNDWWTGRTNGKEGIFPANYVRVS

Going from NVLRKILEIPLHSFS to NMLSRPRLAKLPSIR, the SPOT intensity rises from 0 to 10.

ATNVPVAPPPPPASL showed an SPOT intensity of 0.

biological target: T3, Lsb3, P43603; assay: SPOT array; conditions: median of control spots 406
T3 sequence (P43603 385-451, looked up): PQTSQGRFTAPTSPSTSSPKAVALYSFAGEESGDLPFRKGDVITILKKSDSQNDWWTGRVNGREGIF

Going from NVLRKILEIPLHSFS to NMLSRPRLAKLPSIR, the SPOT intensity rises from 0 to 2.

ATNVPVAPPPPPASL was tested, and the SPOT intensity was 0.

biological target: T4, Nbp2, Q12163; assay: SPOT array; conditions: median of control spots 357
T4 sequence (Q12163 103-180, looked up): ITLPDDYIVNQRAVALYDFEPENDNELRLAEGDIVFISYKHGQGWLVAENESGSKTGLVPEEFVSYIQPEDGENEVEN

NVLRKILEIPLHSFS and NMLSRPRLAKLPSIR are the same in SPOT intensity: 0 for the first, 0 for the second.

In the case of ATNVPVAPPPPPASL, the SPOT intensity is reported as 0.

biological target: Rvs167, P39743; assay: SPOT array; conditions: median of control spots 2707
Sequence (P39743 419-482): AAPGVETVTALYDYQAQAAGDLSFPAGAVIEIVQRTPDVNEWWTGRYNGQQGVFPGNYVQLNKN

NVLRKILEIPLHSFS and NMLSRPRLAKLPSIR are the same in SPOT intensity: 0 for the first, 0 for the second.

Work on ATNVPVAPPPPPASL yielded an SPOT intensity of 0.

biological target: T5, Cdc25, P04821; assay: SPOT array; conditions: median of control spots 969
T5 sequence (P04821 50-136, looked up): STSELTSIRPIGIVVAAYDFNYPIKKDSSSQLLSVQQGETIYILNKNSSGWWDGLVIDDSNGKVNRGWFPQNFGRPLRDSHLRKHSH

First: NVLRKILEIPLHSFS
Second: NMLSRPRLAKLPSIR
The SPOT intensity of the first is lower: 105 for the first, 108 for the second.

ATNVPVAPPPPPASL showed an SPOT intensity of 0.

biological target: T6, Boi1, P38041; assay: SPOT array; conditions: median of control spots 1162
T6 sequence (P38041 1-86, looked up): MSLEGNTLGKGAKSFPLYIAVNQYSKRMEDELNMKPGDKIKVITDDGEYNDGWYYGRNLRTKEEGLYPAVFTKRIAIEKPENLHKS

Compared with NVLRKILEIPLHSFS, NMLSRPRLAKLPSIR is lower in SPOT intensity: 6 for the first, 5 for the second.

ATNVPVAPPPPPASL gave an SPOT intensity of 0.

biological target: T7, Abp1, P15891; assay: SPOT array; conditions: median of control spots 935
T7 sequence (P15891 535-592, looked up): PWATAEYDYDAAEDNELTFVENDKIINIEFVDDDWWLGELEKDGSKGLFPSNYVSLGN

Compared with NVLRKILEIPLHSFS, NMLSRPRLAKLPSIR is higher in SPOT intensity: 7 for the first, 42 for the second.

Work on ATNVPVAPPPPPASL yielded an SPOT intensity of 0.

biological target: T8, Hse1, P38753; assay: SPOT array; conditions: median of control spots 1727
T8 sequence (P38753 208-285, looked up): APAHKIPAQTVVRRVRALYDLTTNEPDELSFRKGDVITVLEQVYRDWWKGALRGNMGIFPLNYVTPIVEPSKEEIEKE

Going from NVLRKILEIPLHSFS to NMLSRPRLAKLPSIR, the SPOT intensity rises from 5 to 216.

ATNVPVAPPPPPASL showed an SPOT intensity of 0.

biological target: T9, Sla1-2, P32790; assay: SPOT array; conditions: median of control spots 712
T9 sequence (P32790 60-140, looked up): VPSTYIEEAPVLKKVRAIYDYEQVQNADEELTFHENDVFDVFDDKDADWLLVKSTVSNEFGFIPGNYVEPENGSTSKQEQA

Compared with NVLRKILEIPLHSFS, NMLSRPRLAKLPSIR is higher in SPOT intensity: 0 for the first, 1 for the second.

Work on ATNVPVAPPPPPASL yielded an SPOT intensity of 0.

biological target: T10, Hof1, Q05080; assay: SPOT array; conditions: median of control spots 4086
T10 sequence (Q05080 590-669, looked up): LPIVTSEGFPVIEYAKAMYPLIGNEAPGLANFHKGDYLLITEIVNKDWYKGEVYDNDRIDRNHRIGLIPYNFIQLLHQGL

First: NVLRKILEIPLHSFS
Second: NMLSRPRLAKLPSIR
The SPOT intensity of the first is lower: 0 for the first, 178 for the second.

In the case of ATNVPVAPPPPPASL, the SPOT intensity is reported as 0.

biological target: T11, Bud14, P27637; assay: SPOT array; conditions: median of control spots 956
T11 sequence (P27637 247-328, looked up): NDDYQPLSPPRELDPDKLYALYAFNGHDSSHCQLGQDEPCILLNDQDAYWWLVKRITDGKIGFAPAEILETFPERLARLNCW

Going from NVLRKILEIPLHSFS to NMLSRPRLAKLPSIR, the SPOT intensity rises from 31 to 33.

For ATNVPVAPPPPPASL, the SPOT intensity was 0.

biological target: T12, Boi2, P39969; assay: SPOT array; conditions: median of control spots 1161
T12 sequence (P39969 32-116, looked up): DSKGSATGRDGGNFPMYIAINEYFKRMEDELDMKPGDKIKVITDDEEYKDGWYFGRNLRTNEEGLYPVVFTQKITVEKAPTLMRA

Compared with NVLRKILEIPLHSFS, NMLSRPRLAKLPSIR is higher in SPOT intensity: 0 for the first, 2 for the second.

In the case of ATNVPVAPPPPPASL, the SPOT intensity is reported as 0.

biological target: T13, Cyk3, Q07533; assay: SPOT array; conditions: median of control spots 1451
T13 sequence (Q07533 1-83, looked up): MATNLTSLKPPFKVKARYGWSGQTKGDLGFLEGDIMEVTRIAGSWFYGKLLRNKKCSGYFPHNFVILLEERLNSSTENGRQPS

NVLRKILEIPLHSFS and NMLSRPRLAKLPSIR are the same in SPOT intensity: 1 for the first, 1 for the second.

ATNVPVAPPPPPASL showed an SPOT intensity of 0.

biological target: Bem1-1, P29366; assay: SPOT array; conditions: median of control spots 4282
Sequence (P29366 55-141): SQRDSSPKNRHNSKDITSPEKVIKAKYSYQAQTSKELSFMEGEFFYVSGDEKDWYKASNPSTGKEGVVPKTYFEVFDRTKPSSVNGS

Compared with NVLRKILEIPLHSFS, NMLSRPRLAKLPSIR is lower in SPOT intensity: 2 for the first, 0 for the second.

With ATNVPVAPPPPPASL the SPOT intensity was 4.

biological target: GST; assay: SPOT array; conditions: median of control spots 978

NVLRKILEIPLHSFS and NMLSRPRLAKLPSIR are the same in SPOT intensity: 0 for the first, 0 for the second.

In the case of ATNVPVAPPPPPASL, the SPOT intensity is reported as 0.

biological target: Sho1, P40073; assay: SPOT array; conditions: median of control spots 1148
Sequence (P40073 287-367): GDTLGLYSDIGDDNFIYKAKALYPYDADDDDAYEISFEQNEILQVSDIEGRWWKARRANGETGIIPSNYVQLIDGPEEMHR

Going from NVLRKILEIPLHSFS to NMLSRPRLAKLPSIR, the SPOT intensity rises from 6 to 38.

ATNVPVAPPPPPASL was tested, and the SPOT intensity was 0.

biological target: T14, Pex13, P80667; assay: SPOT array; conditions: median of control spots 1341
T14 sequence (P80667 295-386, looked up): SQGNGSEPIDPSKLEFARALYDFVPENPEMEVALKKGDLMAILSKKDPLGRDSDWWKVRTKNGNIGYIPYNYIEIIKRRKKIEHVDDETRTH

Compared with NVLRKILEIPLHSFS, NMLSRPRLAKLPSIR is higher in SPOT intensity: 0 for the first, 21 for the second.

Binder ATNVPVAPPPPPASL has an SPOT intensity of 0.

biological target: T15, Bzz1-2, P38822; assay: SPOT array; conditions: median of control spots 4538
T15 sequence (P38822 568-633, looked up): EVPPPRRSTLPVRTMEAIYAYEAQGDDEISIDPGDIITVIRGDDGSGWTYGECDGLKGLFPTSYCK

Going from NVLRKILEIPLHSFS to NMLSRPRLAKLPSIR, the SPOT intensity rises from 5 to 11.

For ATNVPVAPPPPPASL, the SPOT intensity was 3.

biological target: T16, Bbc1, P47068; assay: SPOT array; conditions: median of control spots 796
T16 sequence (P47068 1-78, looked up): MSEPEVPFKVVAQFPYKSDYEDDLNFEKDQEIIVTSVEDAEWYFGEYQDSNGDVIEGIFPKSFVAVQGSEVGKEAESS

Going from NVLRKILEIPLHSFS to NMLSRPRLAKLPSIR, the SPOT intensity falls from 62 to 54.

With ATNVPVAPPPPPASL the SPOT intensity was 0.

biological target: T17, Sla1-3, P32790; assay: SPOT array; conditions: median of control spots 5475
T17 sequence (P32790 344-424, looked up): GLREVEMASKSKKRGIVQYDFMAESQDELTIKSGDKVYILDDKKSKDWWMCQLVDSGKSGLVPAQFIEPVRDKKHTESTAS

Compared with NVLRKILEIPLHSFS, NMLSRPRLAKLPSIR is higher in SPOT intensity: 0 for the first, 25 for the second.

For ATNVPVAPPPPPASL, the SPOT intensity was 0.

biological target: T18, Fus1, P11710; assay: SPOT array; conditions: median of control spots 1200
T18 sequence (P11710 432-512, looked up): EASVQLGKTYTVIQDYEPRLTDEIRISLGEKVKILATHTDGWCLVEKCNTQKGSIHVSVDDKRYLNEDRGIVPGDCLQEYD

Going from NVLRKILEIPLHSFS to NMLSRPRLAKLPSIR, the SPOT intensity falls from 35 to 12.

ATNVPVAPPPPPASL gave an SPOT intensity of 0.

biological target: Myo3, P36006; assay: SPOT array; conditions: median of control spots 468

Going from NVLRKILEIPLHSFS to NMLSRPRLAKLPSIR, the SPOT intensity rises from 0 to 9.

ATNVPVAPPPPPASL showed an SPOT intensity of 0.

biological target: T19, Pin3, Q06449; assay: SPOT array; conditions: median of control spots 2171
T19 sequence (Q06449 53-122, looked up): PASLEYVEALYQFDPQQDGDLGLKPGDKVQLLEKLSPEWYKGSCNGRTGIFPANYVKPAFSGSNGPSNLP

Going from NVLRKILEIPLHSFS to NMLSRPRLAKLPSIR, the SPOT intensity rises from 0 to 40.

ATNVPVAPPPPPASL gave an SPOT intensity of 0.

biological target: T20, Myo5, Q04439; assay: SPOT array; conditions: median of control spots 471
T20 sequence (Q04439 1072-1160, looked up): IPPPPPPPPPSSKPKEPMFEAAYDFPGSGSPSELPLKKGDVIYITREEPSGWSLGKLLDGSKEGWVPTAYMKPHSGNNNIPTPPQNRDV

First: NVLRKILEIPLHSFS
Second: NMLSRPRLAKLPSIR
The SPOT intensity of the first is lower: 0 for the first, 11 for the second.

ATNVPVAPPPPPASL showed an SPOT intensity of 0.

biological target: T21, Lsb1, P53281; assay: SPOT array; conditions: median of control spots 388
T21 sequence (P53281 45-122, looked up): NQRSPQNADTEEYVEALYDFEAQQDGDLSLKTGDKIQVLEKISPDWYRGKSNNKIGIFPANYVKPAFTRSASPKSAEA

First: NVLRKILEIPLHSFS
Second: NMLSRPRLAKLPSIR
The SPOT intensity of the first is lower: 0 for the first, 59 for the second.

For ATNVPVAPPPPPASL, the SPOT intensity was 0.

biological target: Bem1-2, P29366; assay: SPOT array; conditions: median of control spots 4347
Sequence (P29366 139-227): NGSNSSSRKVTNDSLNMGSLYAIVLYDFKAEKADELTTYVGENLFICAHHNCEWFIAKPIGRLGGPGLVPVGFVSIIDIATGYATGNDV

First: NVLRKILEIPLHSFS
Second: NMLSRPRLAKLPSIR
The SPOT intensity of the first is lower: 0 for the first, 18 for the second.

With ATNVPVAPPPPPASL the SPOT intensity was 0.
